Data: the Immune Epitope Database (IEDB)

Target: HLA-A*02:01
Assay: IEDB peptide-MHC binding, purified MHC/direct/fluorescence; filed as Kd, often an IC50 or EC50 that approximates it; ≥ and ≤ were set here for values at or beyond the usual limits of such assays
Settings: source organism: Influenza A virus (A/Puerto Rico/8/1934(H1N1))

Sequence	Kd [nM]
FLARSALIL	0.9
FMQALHLLL	13
GMFNMLSTV	23
LLQNSQVYS	1370
WMMAMKYPITA	75
IILKANFSV	45
FLKDVMESM	51
MMGMFNMLSTV	51
VLMEWLKTRPI	101
MMMGMFNMLST	36
SLVGIDPFRL	70
RMGAVTTEV	133
YLIRALTLNTM	46
WMMAMKYPI	36
GMFNMLSTVL	384
FLAMITYMT	253
FLLMDALKLSI	24
